Experimental data: patent US20200115458A1 (CALIFORNIA INSTITUTE FOR BIOMEDICAL RESEARCH, published 2020)
Numbering of substitutions follows the chain as printed. Each block holds one binder with its values, some of them ahead of it.

Experiments:
[1] = target: T1, human ASGPR (asialoglycoprotein receptor) (human, UniProt P07306 62-291); assay: ELISA, coated ASGPR antigen (FIG. 3)
T1 construct: also called human ASPGR; ASGPR antigen (human)
T1 sequence: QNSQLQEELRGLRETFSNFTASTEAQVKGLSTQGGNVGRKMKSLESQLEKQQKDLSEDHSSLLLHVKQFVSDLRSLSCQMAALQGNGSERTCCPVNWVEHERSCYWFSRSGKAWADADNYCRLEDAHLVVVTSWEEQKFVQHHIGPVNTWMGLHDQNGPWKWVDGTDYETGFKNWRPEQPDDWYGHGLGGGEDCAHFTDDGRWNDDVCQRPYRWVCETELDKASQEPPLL
Experimental: (§1) The activity of anti-ASGPR within the Ins1-L1-Ab1L IgG (SEQ ID NOS: 79, 29) and Ins1-L1-Ab1H IgG (SEQ ID NOS: 78, 30) fusion proteins for human ASGPR was tested by ELISA assay. Briefly, 100 ng/well ASGPR antigen (human, rat and cyno monkey) was coated on 96-well plate in PBS at 4° C. overnight; the wells were blocked with 2% milk/PBST (0.5% Tween-20 in PBS) at room temperature for 1 hr; antibodies were added in concentrations of 10 nM, 1 nM and 0.1 nM in 2% milk/PBST at room temperature for 2 hr; the wells were washed with PBST 4-5 times; anti-light chain kappa (sigma A7164) in 2% milk/PBST was added and the plate incubated at room temperature for 1 hr; the wells were washed with PBST 4-5 times; and the reaction was developed with QuantaBlu fluorogenic peroxidase substrate (Life technologies, 15169), and quantified using a Spectramax fluorescence plate reader with excitation at 325 nm and emission at 420 nm. […] The figures illustrate that anti-ASGPR antibodies fused to insulin therapeutic peptides retain activity for their antigen ASGPR.

[2] = target: T2, rat ASGPR (rat, UniProt P02706 61-284); assay: ELISA, 100 ng/well coated ASGPR antigen, antibodies at 10, 1 and 0.1 nM, anti-kappa detection
T2 construct: also called ASGPR antigen (rat)
T2 sequence: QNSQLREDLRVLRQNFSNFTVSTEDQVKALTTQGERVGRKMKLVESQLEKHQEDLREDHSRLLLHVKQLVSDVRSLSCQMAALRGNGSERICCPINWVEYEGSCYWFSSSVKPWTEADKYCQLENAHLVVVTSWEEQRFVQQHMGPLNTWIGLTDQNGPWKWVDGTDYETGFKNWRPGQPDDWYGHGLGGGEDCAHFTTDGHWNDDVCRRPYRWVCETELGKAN
Experimental: as §1

[3] = target: T1, human ASGPR (asialoglycoprotein …); assay: ELISA (FIG. 16)
[4] = target: T2, rat ASGPR; assay: ELISA (FIG. 16)
[5] = target: T3, cynomolgus monkey ASGPR (cynomolgus monkey, UniProt P07306 62-291 (human entry)); assay: ELISA (FIG. 16)
T3 construct: also called cyno monkey ASGPR; cyno monkey ASPGR
T3 chain: T1 sequence with S3A, E7R, F16L, T91A, D221H

[6] = target: T1, human ASGPR (asialoglycoprotein …); assay: ELISA (FIG. 37)
Experimental: (§2) The activity of anti-ASGPR within Ins1-L3-Ab4 Fab and Ins1-L3-Ab5 Fab fusion proteins for human, rat, and cyno monkey ASGPR was tested by ELISA assay as shown in FIGS. 37-39 as generally described in Example 3. 100 ng/well ASGPR antigen (human, rat, and cyno monkey) was coated on 96-well plate in PBS 4° C. over night, blocked with 2% milk/PBST (0.5% Tween-20 in PBS) at room temperature for 1 hr, and incubated with the fusion proteins at 4 nM, 20 nM, 100 nM, and 500 nM in 2% milk/PBST at room temperature for 2 hr. Wells were then washed with PBST for 4-5 times, incubated with mouse anti-insulin (MA5-12037, ThermoFisher Scientific) in 2% milk/PBST at room temperature for 2 hr, washed with PBST for 4-5 times, incubated with goat anti-mouse IgG-HRP (115-035-008, Jackson ImmunoResearch) for 30 min, and washed with PBST for 4-5 times The plates were developed with QuantaBlu fluorogenic peroxidase substrate (Life technologies, 15169), and quantified using Spectramax fluorescence plate reader with excitation at 325 nm and emission at 420 nm.
(§3) The figures illustrate that anti-ASGPR antibodies fused to insulin therapeutic peptides retain activity for their antigen ASGPR as determined by ELISA assay.

[7] = target: T2, rat ASGPR; assay: ELISA (FIG. 38)
Experimental: as §2, §3

[8] = target: T3, cynomolgus monkey ASGPR; assay: ELISA (FIG. 39)
Experimental: as §2, §3

binding result [1]: binds | binding result [2]: binds
B1: Ins1-L1-Ab1L IgG (antibody)
light: FVNQHLCGSDLVEALYLVCGERGFFYTDPTGGGPRRGIVEQCCHSICSLYQLENYCNGGGGSETVLTQSPTTMATSPGEKITITCSASSTISSNYLHWYQQKPGFSPKLLIYRTSDLASGVPTRFSGSGSGTSYSLTIGTMEAEDVATYYCQQGSSIPFTFGSGTKLEINRADTAPTVSIFPPSSEQLTSGGASVVCFLNNFYPKDINVKWKIDGSERQNGVLNSWTDQDSKDSTYSMSSTLTLTKDEYERHNSYTCEATHKTSTSPIVKSFNRNEC
heavy: QVQLQQPGAELVKPGASVKLSCKASGYTFTNYWMHWVKQRPGRGLEWIGRIDLNSGGTNYNYNEKFKTKATLTVDKPSSTAYMQLSSLTSEDSAVYYCANYYGSSWFAYWGQGTTLTVSSAKTTAPSVYPLAPVCGDTTGSSVTLGCLVKGYFPEPVTLTWNSGSLSSGVHTFPAVLQSDLYTLSSSVTVTSSTWPSQSITCNVAHPASSTKVDKKIEPRGPTIKPCPPCKCPAPNLLGGPSVFIFPPKIKDVLMISLSPIVTCVVVDVSEDDPDVQISWFVNNVEVHTAQTQTHREDYNSTLRVVSALPIQHQDWMSGKEFKCKVNNKDLPAPIERTISKPKGSVRAPQVYVLPPPEEEMTKKQVTLTCMVTDFMPEDIYVEWTNNGKTELNYKNTEPVLDSDGSYFMYSKLRVEKKNWVERNSYSCSVVHEGLHNHHTTKSFSRTPGK
notes: also called Ins-L1-Ab1L IgG; Ins1-L1-AbL IgG

binding result [3]: binds | binding result [4]: binds | binding result [5]: binds
B2: Ins1-L3-Ab4 Fab (Fab)
light: FVNQHLCGSDLVEALYLVCGERGFFYTDPTGGGPRRGIVEQCCHSICSLYQLENYCNGGGEAAAKEAAAKEAAAKAGGEIVLTQSPGTLSLSPGERATLSCSASSTISSNYLHWYQQKPGQAPRLLIYRTSDLASGIPDRFSGSGSGTDFTLTISRLEPEDFAVYYCQQGSSIPFTFGQGTKLEIKRTVAAPSVFIFPPSDEQLKSGTASVVCLLNNFYPREAKVQWKVDNALQSGNSQESVTEQDSKDSTYSLSSTLTLSKADYEKHKVYACEVTHQGLSSPVTKSFNRGEC
heavy: QVQLVQSGAEVKKPGASVKVSCKASGYTFTNYWMHWVRQAPGQGLEWMGRIDLNSGGTNYNYAQKFQGRVTMTRDTSISTAYMELSRLRSDDTAVYYCARYYGSSWFAYWGQGTLVTVSSASTKGPSVFPLAPSSKSTSGGTAALGCLVKDYFPEPVTVSWNSGALTSGVHTFPAVLQSSGLYSLSSVVTVPSSSLGTQTYICNVNHKPSNTKVDKKVEPKSCDKTHT
notes: also called Ins1-L3-Ab4L (Fab); Ins1-L3-Ab4L and Ab4H(Fab)

binding result [3]: binds | binding result [4]: binds | binding result [5]: binds
B3: Ins1-L3-Ab4L IgG (antibody)
light: B2 light
heavy: QVQLVQSGAEVKKPGASVKVSCKASGYTFTNYWMHWVRQAPGQGLEWMGRIDLNSGGTNYNYAQKFQGRVTMTRDTSISTAYMELSRLRSDDTAVYYCARYYGSSWFAYWGQGTLVTVSSASTKGPSVFPLAPSSKSTSGGTAALGCLVKDYFPEPVTVSWNSGALTSGVHTFPAVLQSSGLYSLSSVVTVPSSSLGTQTYICNVNHKPSNTKVDKKVEPKSCDKTHTCPPCPAPPVAGPSVFLFPPKPKDTLMISRTPEVTCVVVDVSHEDPEVKFNWYVDGVEVHNAKTKPREEQYNSTYRVVSVLTVLHQDWLNGKEYKCKVSNKGLPSSIEKTISKAKGQPREPQVYTLPPSRDELTKNQVSLTCLVKGFYPSDIAVEWESNGQPENNYKTTPPVLDSDGSFFLYSKLTVDKSRWQQGNVFSCSVMHEALHNHYTQKSLSLSPGK
notes: Insulin immunoglobulin fusion protein: Ins1-L3-Ab4L light chain fusion paired with the full humanized heavy chain Ab4H; also called Ins1-L3-Ab4 IgG; Ins1-L3-Ab4L and Ab4H

binding result [6]: binds | binding result [7]: binds | binding result [8]: binds
B4: Ins1-L3-Ab5 Fab (Fab)
light: B2 light
heavy: B2 heavy with R50W
notes: As Ins1-L3-Ab4 Fab but with the Ab5H Fab heavy chain (Ab4H mutated at position 50); also called Ins1-L3-Ab5L (Fab)

binding result [1]: binds | binding result [2]: binds
B5: Ins1-L1-Ab1H IgG (antibody)
heavy: FVNQHLCGSDLVEALYLVCGERGFFYTDPTGGGPRRGIVEQCCHSICSLYQLENYCNGGGGSQVQLQQPGAELVKPGASVKLSCKASGYTFTNYWMHWVKQRPGRGLEWIGRIDLNSGGTNYNYNEKFKTKATLTVDKPSSTAYMQLSSLTSEDSAVYYCANYYGSSWFAYWGQGTTLTVSSAKTTAPSVYPLAPVCGDTTGSSVTLGCLVKGYFPEPVTLTWNSGSLSSGVHTFPAVLQSDLYTLSSSVTVTSSTWPSQSITCNVAHPASSTKVDKKIEPRGPTIKPCPPCKCPAPNLLGGPSVFIFPPKIKDVLMISLSPIVTCVVVDVSEDDPDVQISWFVNNVEVHTAQTQTHREDYNSTLRVVSALPIQHQDWMSGKEFKCKVNNKDLPAPIERTISKPKGSVRAPQVYVLPPPEEEMTKKQVTLTCMVTDFMPEDIYVEWTNNGKTELNYKNTEPVLDSDGSYFMYSKLRVEKKNWVERNSYSCSVVHEGLHNHHTTKSFSRTPGK
light: ETVLTQSPTTMATSPGEKITITCSASSTISSNYLHWYQQKPGFSPKLLIYRTSDLASGVPTRFSGSGSGTSYSLTIGTMEAEDVATYYCQQGSSIPFTFGSGTKLEINRADTAPTVSIFPPSSEQLTSGGASVVCFLNNFYPKDINVKWKIDGSERQNGVLNSWTDQDSKDSTYSMSSTLTLTKDEYERHNSYTCEATHKTSTSPIVKSFNRNEC
notes: also called Ins-L1-Ab1H IgG
